# In publication PMC2112199 (The Journal of Cell Biology, 1982):
# Where “and” joins values, the source holds several entries; their conditions need not be identical. Identical values can stand only once. Like-named read-outs stand apart in the source and are kept apart here.
# B1: Acanthamoeba profilin (natural protein)
# chain: SWQTYVDTNLVGTGAVTQAAILGLDGNTWATSAGFAVTPAQGQTLASAFNNADPIRASGFDLAGVHYVTLRADDRSIYGKKGSAGVITVKTSKSILVGVYNEKIQPGTAANVVEKLADYLIGQGF
# Columns and labels:
# [1] = molecular target: Rabbit skeletal muscle actin (rabbit, UniProt P68135 1-377); assay: inhibition of actin polymerization by profilin
# Acanthamoeba actin [2] = molecular target: Acanthamoeba actin (Acanthamoeba)
# Acanthamoeba actin [3] = molecular target: Acanthamoeba actin (Acanthamoeba); assay: critical concentration of actin polymerization at steady state
binder,measurement,setting,value
B1,Kd,[1],> 30 µM
same,Kd,Acanthamoeba actin [2],4 µM and 3.1 µM and 3.7 µM
same,Kd,Acanthamoeba actin [3],0.9 µM and 1.4 µM and 1.3 µM
